Results taken from patent US20080045697A1.

Assays:
complement C3b [1] = biological target: complement C3b (UniProt P01024); assay: cell-based or functional assay
complement C3b [2] = biological target: complement C3b (UniProt P01024); assay: competition ELISA: CRIg protein against CRIg-LFH on plate-coated C3b, anti-FLAG detection

fold increase of IC50 compared to wt CRIg (complement C3b [2]) [fold]	Substance	other results
–	CRIg (soluble, construct not stated) (from UniProt Q9Y279 20-189) (receptor)	inhibition of C5b-9 deposition through the alternative pathway (LPS-coated plate, C1q deficient serum) (complement C3b [1]): 1.49 µM
> 10000	CRIg mutant A (E85A M86A) (from UniProt Q9Y279 20-399) (receptor)	–
100	CRIg mutant B (H57A Q59A) (from UniProt Q9Y279 20-399) (receptor)	–
–	CRIg-Fc (from UniProt Q9Y279 20-283) (Fc fusion)	inhibition of hemolysis of rabbit erythrocytes in C1q deficient serum (alternative pathway) (complement C3b [1]): 127 nM
